{"source": "patent US20070099830", "proteins": {"B1": {"name": "human Sirt4 with a C-terminal FLAG (protein)", "chain": "IGLFVPASPPLDPEKVKELQRFITLSKRLLVMTGAGISTESGIPDYRSEKVGLYARTDRRPIQHGDFVRSAPIRQRYWARNFVGWPQFSSHQPNPAHWALSTWEKLGKLYWLVTQNVDALHTKAGSRRLTELHGCMDRVLCLDCGEQTPRGVLQERFQVLNPTWSAEAHGLAPDGDVFLSEEQVRSFQVPTCVQCGGHLKPDVVFFGDTVNPDKVDFVHKRVKEADSLLVVGSSLQVYSGYRFILTAWEKKLPIAILNIGPTRSDDLACLKLNSRCGELLPLIDPC"}}, "key": {"[1]": {"target": "bovine recombinant glutamate dehydrogenase, P00366", "sequence (P00366 58-558)": "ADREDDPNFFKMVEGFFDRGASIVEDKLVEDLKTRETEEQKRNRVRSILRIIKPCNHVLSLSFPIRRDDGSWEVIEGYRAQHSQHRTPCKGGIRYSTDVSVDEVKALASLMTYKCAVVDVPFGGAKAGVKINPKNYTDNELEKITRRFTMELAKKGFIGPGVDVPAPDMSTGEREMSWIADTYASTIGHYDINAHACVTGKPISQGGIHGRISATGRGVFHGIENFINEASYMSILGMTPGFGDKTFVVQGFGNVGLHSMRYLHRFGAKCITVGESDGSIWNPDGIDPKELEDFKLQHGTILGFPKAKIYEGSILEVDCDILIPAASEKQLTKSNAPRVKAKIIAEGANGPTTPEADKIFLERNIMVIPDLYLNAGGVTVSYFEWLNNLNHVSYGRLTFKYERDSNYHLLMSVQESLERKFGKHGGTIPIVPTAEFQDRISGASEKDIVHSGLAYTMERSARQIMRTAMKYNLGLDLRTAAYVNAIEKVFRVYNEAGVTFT"}}, "data": [{"protein": "B1", "values": [{"measurement": "mass spectroscopy of histone 2A after incubation with Sirt4 and NAD", "setting": "histone 2A protein", "result": "Sirt4 transferred an approximately 500 Dalton moiety to Histone 2A"}, {"measurement": "glutamate dehydrogenase activity (disappearance of NADH, A340) after one hour with Sirt4 and NAD", "setting": "[1]", "result": "Sirt4, but not the buffer control, significantly reduced the enzymatic activity of glutamate dehydrogenase"}]}]}
